Molecular target: H5VN04 trimeric HA (recombinant hemagglutinin) (Influenza A virus A/Vietnam/1203/2004 …, strain)
Assay: SPR
Settings: both partners purified

B1: CR6261 scFv (wild type) (scFv, V domains shown)
VH: EVQLVESGAEVKKPGSSVKVSCKASGGPFRSYAISWVRQAPGQGPEWMGGIIPIFGTTKYAPKFQGRVTITADDFAGTVYMELSSLRSEDTAMYYCAKHMGYQVRETMDVWGKGTTVTVSS
VL: QSVLTQPPSVSAAPGQKVTISCSGSSSNIGNDYVSWYQQLPGTAPKLLIYDNNKRPSGIPDRFSGSKSGTSATLGITGLQTGDEANYYCATWDRRPTAYVVFGGGTKLTVL
B1: binds.
